This is an account of results in paper PMC9474507.

As a reminder, the Kd is the concentration at which binding is half-saturated. Low readings indicate tighter binding, high ones weaker binding.

Test [1] deals with Albumin purified from human serum (human) (UniProt P02768). Briefly: BLI; HSA pre-coated on L-NPs. (In general: Biolayer interferometry detects binding as a change in optical thickness at a sensor tip.)
Test [2] has as its target Immunoglobulin G purified from human serum (human) [IgG part: P01857]. Briefly: BLI; IgG pre-coated on L-NPs.
The target in test [3] is pre-formed corona layer (proteins of 10% mouse serum pre-adsorbed on L-NPs) (mouse (endogenous in serum)). Briefly: BLI; L-NPs loaded on human IgG-coated AR2G biosensors, immersed in 10% mouse serum (300 s in the methods, 3 min in the text) and rinsed with water; association 300 s with 6.25-100 nM HSA or IgG, dissociation 600 s in buffer; 30 °C, 1000 rpm; 1:1 model.

For “Immunoglobulin G purified from human serum (from UniProt P01857)”, the Kd was below 1 pM in test [1] and 5.1 nM in test [2]. In the case of “Immunoglobulin G purified from human serum (antibody)”, the dissociation constant (Kd) in test [3] came out at 1.2 nM. “Albumin purified from human serum (from UniProt P02768 25-609) (natural protein)” yielded a Kd in test [3] of 32.5 nM.
